Consider 38 sequences from the supplement of paper PMC7877785.

The nature of the data set: self-splicing fitness, log relative to wild type (ln ratio); higher = more splicing; Tetrahymena group I intron in knt gene, E. coli kanamycin selection, DiMSum; sequences stand for … in CUCUCU…GGAGGGAAAAGUUAUCAGGCAUGCACCUGGUAGCUAGUCUUUAAACCAAUAGAUUGCAUCGGUUUAAAAGGCAAGACCGUCAAAUUGCGGGAAAGGGGUCAACAGCCGUUCAGUACCAAGUCUCAGGGGAAACUUUGAGAUGGCCUUGCAAAGGGUAUGGUAAUAAGCUGACGGACAUGGUCCUAACCACGCAGCCAAGUCCUAAGUCAACAGAUCUUCUGUUGAUAUGGAUGCAGUUCACAGACUAAAUGUCGGUCGGGGAAGAUGUAUUCUUCUCAUAAGAUAUAGUCGGACCUCUCCUUAAUGGGAGCUAGCGGAUGAAGUGAUGCAACACUGGAGCCGCUGGGAACUAAUUUGUAUGCGAAAGUAUAUUGAUUAGUUUUGGAGUACUCGUGGUCG
A digest of the protocol:
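Colonies from six replicate transformations of E. coli BL21(DE3) were pooled and amplicon-sequenced on an Illumina HiSeq 2500. The library placed an intron with all eight P1ex-region nucleotides randomised inside the knt kanamycin-resistance gene on pET-22b(+), and cells grew overnight at 37°C or 30°C on LB agar with or without 25 μg/mL kanamycin (plus 100 μg/mL carbenicillin, 50 μM IPTG, 0.2% rhamnose). Fitness is the DiMSum error-weighted combination of wild-type-normalised replicate fold changes, kanamycin versus none.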

± gives the uncertainty stated by the source.

Regarding AUGGAGCAAUAUUACGGCAU, the “self-splicing fitness (ln)” value (30 °C) was -0.641 ± 0.16 and the “self-splicing fitness (ln)” value (37 °C) was -0.53 ± 0.16. The matching figures for AUGGAGCAAUAUUACGGCCA: -1.49 ± 0.18 and -0.494 ± 0.21. Turning to AUGGAGCAAUAUUACGGCCC, the “self-splicing fitness (ln)” value is -1.13 ± 0.24 (30 °C) and -1.43 ± 0.31 (37 °C). For AUGGAGCAAUAUUACGGGCG the same measures were -3.21 ± 0.26 and -2.63 ± 0.44. The matching figures for AUGGAGCAAUAUUACGGUAG: -3.61 ± 0.33 and -2.51 ± 0.41. For AUGGAGCAAUAUUACGGUCA the same measures were -2.19 ± 0.24 and -0.926 ± 0.2. Consider AUGGAGCAAUAUUACGUCCC, for which the “self-splicing fitness (ln)” value was 0.0307 ± 0.46 (30 °C) and -0.013 ± 0.42 (37 °C). The matching figures for AUGGAGCAAUAUUACGUGGG: -3.61 ± 0.37 and -0.89 ± 0.27. The matching figures for AUGGAGCAAUAUUACGUUUC: -3.47 ± 0.21 and -2.68 ± 0.26. Consider AUGUAGCAAUAUUACGACCU, for which the “self-splicing fitness (ln)” value is, setting by setting: (30 °C) -0.739 ± 0.28; (37 °C) -0.136 ± 0.34. As to AUGUAGCAAUAUUACGAGUC, the “self-splicing fitness (ln)” value (30 °C) was -2.95 ± 0.23 and the “self-splicing fitness (ln)” value (37 °C) is -3.28 ± 0.4. Take AUGUAGCAAUAUUACGCCAG: the “self-splicing fitness (ln)” value by setting is: (30 °C) -3.46 ± 0.31; (37 °C) -1.05 ± 0.31. For AUGUAGCAAUAUUACGCGAU, the “self-splicing fitness (ln)” value is -2.09 ± 0.2 (30 °C) and -2.55 ± 0.24 (37 °C). The matching figures for AUGUAGCAAUAUUACGCGCU: -0.77 ± 0.14 and -0.00271 ± 0.15.

AUGUAGCAAUAUUACGCGGC: the “self-splicing fitness (ln)” value runs as follows: (30 °C) -4.15 ± 0.4; (37 °C) -3.45 ± 0.27. The matching figures for AUGUAGCAAUAUUACGCUCA: -0.372 ± 0.075 and -0.2 ± 0.1. Consider AUGUAGCAAUAUUACGCUCC, for which the “self-splicing fitness (ln)” value is -0.373 ± 0.28 (30 °C) and -0.973 ± 0.45 (37 °C). The matching figures for AUGUAGCAAUAUUACGCUGU: -2.92 ± 0.12 and -1.12 ± 0.11. In the case of AUGUAGCAAUAUUACGCUUU, the “self-splicing fitness (ln)” value is, setting by setting: (30 °C) -3.23 ± 0.15; (37 °C) -1.29 ± 0.11. For AUGUAGCAAUAUUACGGCGG the same measures were -0.915 ± 0.19 and -1.14 ± 0.23.

Regarding AUGUAGCAAUAUUACGGUAG, the “self-splicing fitness (ln)” value by setting is: (30 °C) -4.38 ± 0.32; (37 °C) -3.33 ± 0.42. For the sequence AUGUAGCAAUAUUACGGUCC, the “self-splicing fitness (ln)” value is, setting by setting: (30 °C) -1.32 ± 0.1; (37 °C) 0.341 ± 0.12. The matching figures for AUGUAGCAAUAUUACGUCAA: -2.9 ± 0.3 and -2.98 ± 0.35.

As for AUGUAGCAAUAUUACGUCGU, the “self-splicing fitness (ln)” value by setting is: (30 °C) -3.28 ± 0.24; (37 °C) -0.241 ± 0.12. Regarding AUGUAGCAAUAUUACGUGGU, for the setting “37 °C”, the “self-splicing fitness (ln)” value was -1.53 ± 0.17. In the case of AUGUAGCAAUAUUACGUGUG, the “self-splicing fitness (ln)” value is -3.33 ± 0.23 (30 °C) and -2.53 ± 0.15 (37 °C). In the case of AUUAAGCAAUAUUACGAACA, the “self-splicing fitness (ln)” value runs as follows: (30 °C) -1.43 ± 0.14; (37 °C) -0.718 ± 0.17. The matching figures for AUUAAGCAAUAUUACGACCU: -0.144 ± 0.17 and 0.145 ± 0.18. The matching figures for AUUAAGCAAUAUUACGACUA: -1.05 ± 0.12 and -0.207 ± 0.15. With AUUAAGCAAUAUUACGAUAC, the “self-splicing fitness (ln)” value reads like this: (30 °C) -1.93 ± 0.11; (37 °C) -0.885 ± 0.15.

As to AUUAAGCAAUAUUACGAUUC, the “self-splicing fitness (ln)” value by setting is: (30 °C) -1.89 ± 0.1; (37 °C) -0.797 ± 0.12.

For AUUAAGCAAUAUUACGAUUU, the “self-splicing fitness (ln)” value by setting is: (30 °C) -0.227 ± 0.091; (37 °C) 1.04 ± 0.12. Turning to AUUAAGCAAUAUUACGCACC, the “self-splicing fitness (ln)” value reads like this: (30 °C) -1.52 ± 0.19; (37 °C) 0.0961 ± 0.28. With AUUAAGCAAUAUUACGCAGU, the “self-splicing fitness (ln)” value (30 °C) is -3.15 ± 0.21 and the “self-splicing fitness (ln)” value (37 °C) is -2.48 ± 0.21. On to AUUAAGCAAUAUUACGCCCC, for which the “self-splicing fitness (ln)” value is, setting by setting: (30 °C) -1.21 ± 0.31; (37 °C) 0.0189 ± 0.48. In the case of AUUAAGCAAUAUUACGCUAU, the “self-splicing fitness (ln)” value by setting is: (30 °C) -3.62 ± 0.26; (37 °C) -1.73 ± 0.26. In the case of AUUAAGCAAUAUUACGGAAA, the “self-splicing fitness (ln)” value is, setting by setting: (30 °C) -2.98 ± 0.29; (37 °C) -1.77 ± 0.26. For the sequence AUUAAGCAAUAUUACGGACU, the “self-splicing fitness (ln)” value runs as follows: (30 °C) 0.271 ± 0.11; (37 °C) 0.324 ± 0.15.
